The values that follow come from US20210269836A1 (JOHN INNES CENTRE, published 2021).

The target of experiment [1] is T1, LAMT-YFPN (loganic acid methyltransferase fused to the N-terminal split YFP fragment) (UniProt B2KPR3 1-371).
T1 construct: Control construct of the BiFC assay; also called LAMT-YN; not shown: N-terminal split YFP fragment (YFPN)
T1 sequence (looked up): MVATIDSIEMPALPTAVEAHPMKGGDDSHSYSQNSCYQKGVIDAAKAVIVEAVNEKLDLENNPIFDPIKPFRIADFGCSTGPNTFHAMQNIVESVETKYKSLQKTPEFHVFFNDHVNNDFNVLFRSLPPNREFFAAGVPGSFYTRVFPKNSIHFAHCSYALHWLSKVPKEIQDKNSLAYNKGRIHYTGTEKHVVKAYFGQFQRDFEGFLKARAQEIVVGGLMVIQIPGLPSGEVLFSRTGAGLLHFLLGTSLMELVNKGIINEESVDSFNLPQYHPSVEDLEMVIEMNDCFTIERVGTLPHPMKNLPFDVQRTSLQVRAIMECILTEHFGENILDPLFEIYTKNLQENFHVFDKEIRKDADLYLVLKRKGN
The experiment is described as follows: BiFC in transiently transformed C. roseus cells. On the procedure: (§1) Interaction of DPAS with TS and CS. DPAS/CS and DPAS/TS interactions were analyzed by BiFC in C. roseus cells transiently transformed by distinct combinations of plasmids encoding fusions with the two split YFP fragments, YFPN (YN) and YFPC (YC) as indicated on each pictures of the first row (A, D, G, J, M). Identification of transiently transformed cells was achieved by co-transformation with the nucleus (nuc)-CFP marker(B, E, H, K, N). […] Interactions of DPAS and TS with loganic acid methyltransferase (LAMT)-YN and LAMT-YC were also studied to evaluate the specificity of DPAS/TS interactions. Cell morphology is observed with differential interference contrast (DIC) (C, F, I, L, O). Scale bars, 10 μm.
(§2) Transient transformation of C. roseus cells by particle bombardment and fluorescence imaging were performed. Briefly, C. roseus plated cells were bombarded with DNA-coated gold particles (1 μm) and 1,100 psi rupture disc at a stopping-screen-to-target distance of 6 cm, using the Bio-Rad PDS1000/He system. Cells were cultivated for 16 h to 38 h (DPAS, CS and TS) or up to 96 h for PAS before being harvested and observed. The subcellular localization was determined using an Olympus BX-51 epifluorescence microscope equipped with an Olympus DP-71 digital camera and a combination of YFP and CFP filters. […]

Experiment [2] deals with T2, LAMT-YFPC (loganic acid methyltransferase fused to the C-terminal split YFP fragment) (UniProt B2KPR3 1-371).
T2 construct: Control construct of the BiFC assay; also called LAMT-YC; not shown: C-terminal split YFP fragment (YFPC)
T2 sequence (looked up): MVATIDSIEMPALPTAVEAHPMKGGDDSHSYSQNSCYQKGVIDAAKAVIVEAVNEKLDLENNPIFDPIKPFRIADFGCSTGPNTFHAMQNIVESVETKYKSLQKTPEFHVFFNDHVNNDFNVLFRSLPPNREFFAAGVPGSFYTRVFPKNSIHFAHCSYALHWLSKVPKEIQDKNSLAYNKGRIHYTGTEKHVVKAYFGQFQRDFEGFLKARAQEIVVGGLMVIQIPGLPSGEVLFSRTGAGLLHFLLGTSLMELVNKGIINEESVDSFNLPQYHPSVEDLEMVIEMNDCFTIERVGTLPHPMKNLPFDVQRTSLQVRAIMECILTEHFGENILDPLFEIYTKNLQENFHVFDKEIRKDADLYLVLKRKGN
The experiment is described as follows: BiFC in transiently transformed C. roseus cells. On the procedure: as §1, §2

B1: YFPC-DPAS (dehydroprecondylocarpine acetate synthase fused at its N-terminus to the C-terminal split YFP fragment) (enzyme)
chain: MAGKSAEEEHPIKAYGWAVKDRTTGILSPFKFSRRATGDDDVRIKILYCGICHTDLASIKNEYEFLSYPLVPGMEIVGIATEVGKDVTKVKVGEKVALSAYLGCCGKCYSCVNELENYCPEVIIGYGTPYHDGTICYGGLSNETVANQSFVLRFPERLSPAGGAPLLSAGITSFSAMRNSGIDKPGLHVGVVGLGGLGHLAVKFAKAFGLKVTVISTTSKKDDAINGLGADGFLLSRDDEQMKAAIGTLDAIIDTLAVVHPIAPLLDLLRSQGKFLLLGAPSQSLELPPIPLLSGGKSIIGSAAGNVKQTQEMLDFAAEHDITANVEIIPIEYINTAMERLDKGDVRYRFVVDIENTLTPPSEL
notes: BiFC fusion expressed transiently inside C. roseus cells; also called YC-DPAS; dihydroprecondylocarpine acetate synthase; not shown: C-terminal split YFP fragment (YFPC) from plasmid pSCA-SPYCE (MR)
On to B1, for which, in experiment [1], the binding result is reported as “no binding”.

B2: TS-YFPN (Tabersonine Synthase fused at its C-terminus to the N-terminal split YFP fragment) (enzyme)
chain: MGSSDETIFDLPPYIKVFKDGRVERLHSSPYVPPSLNDPETGGVSWKDVPISSVVSARIYLPKINNHDEKLPIIVYFHGAGFCLESAFKSFFHTYVKHFVAEAKAIAVSVEFRLAPENHLPAAYEDCWEALQWVASHVGLDISSLKTCIDKDPWIINYADFDRLYLWGDSTGANIVHNTLIRSGKEKLNGGKVKILGAILYYPYFLIRTSSKQSDYMENEYRSYWKLAYPDAPGGNDNPMINPTAENAPDLAGYGCSRLLISMVADEARDITLLYIDALEKSGWKGELDVADFDKQYFELFEMETEVAKNMLRRLASFIK
notes: BiFC fusion expressed transiently inside C. roseus cells; also called TS-YN; not shown: N-terminal split YFP fragment (YFPN) from plasmid pSCA-SPYNE173
For the molecule B2, the binding result in experiment [2] was “no binding”.
